Data as given in the RNAGym collection of RNA variant scans (doi:10.1073/pnas.2313332121).
Variants at the floor of the assay were thinned out.

B1: TPR 5TU (parent)
chain: GGAUCUUCUCGAUCUAACAAAAAAGACAAAUCUGCCACAAAGCUUGAGAGCAUCUUCGGAUGCAGAGGCGGCAGCCUUCGGUGGCGCGAUAGCGCCAACGUUCUCAACUAUGACACGCAAAACGCGUGCUCCGUUGAAUGGAGUUUAUCAUG

Variants of: B1
Assay: polymerase ribozyme fitness, log enrichment relative to wild type (log ratio); higher = more active; in vitro selection for triplet polymerase activity
How it was run: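 The heterodimeric triplet polymerase ribozyme's subunits were each mutagenized into PCR-built libraries and transcribed. Every library was selected once, in triplicate, by annealing with a biotinylated primer, the partner subunit and triplets, incubating frozen at −7 °C, gel-excising extended constructs, capturing on streptavidin beads and running RT-PCR. Input and output libraries were Illumina-sequenced, with genotypes kept only at ≥10 input reads and ≥1 read per output. Fitness, from inverse-variance-weighted replicate averages, is the base-2 logarithm of genotype enrichment over wild-type enrichment.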
For C96U A97C, the “polymerase ribozyme fitness (log ratio)” value was 0.0607.
In the case of C96U G143A, the “polymerase ribozyme fitness (log ratio)” value is reported as -0.236.
In the case of C96U G143C, the “polymerase ribozyme fitness (log ratio)” value is reported as -3.12.
For C103A G117U, the “polymerase ribozyme fitness (log ratio)” value was -0.489.
For A106C C116G, the “polymerase ribozyme fitness (log ratio)” value was -0.324.
For A110C G112A G140C A142U, the “polymerase ribozyme fitness (log ratio)” value was -4.12.
With C96U C116U G140C U144G the “polymerase ribozyme fitness (log ratio)” value was -4.04.
With U101C C132A the “polymerase ribozyme fitness (log ratio)” value was -2.05.
With C96U the “polymerase ribozyme fitness (log ratio)” value was -0.258.
For A107G G141U, the “polymerase ribozyme fitness (log ratio)” value was -3.07.
With C96U A107G G117A the “polymerase ribozyme fitness (log ratio)” value was no more than -4.2.
With A97U U139A U144A the “polymerase ribozyme fitness (log ratio)” value was -4.08.
For A113C U134C A137C G140A U148G, the “polymerase ribozyme fitness (log ratio)” value was no more than -4.2.
With U102C U134A the “polymerase ribozyme fitness (log ratio)” value was -3.46.
For C96U A110U, the “polymerase ribozyme fitness (log ratio)” value was -3.6.
With C96G A142C the “polymerase ribozyme fitness (log ratio)” value was -1.82.
With C103G C108G G124C U144A U145G the “polymerase ribozyme fitness (log ratio)” value was no more than -4.2.
For A106G U134A, the “polymerase ribozyme fitness (log ratio)” value was -1.28.
For U102G A121U, the “polymerase ribozyme fitness (log ratio)” value was -2.32.
With U102G A121C the “polymerase ribozyme fitness (log ratio)” value was -2.85.
For U104G G126A, the “polymerase ribozyme fitness (log ratio)” value was 0.207.
With U104G G126C the “polymerase ribozyme fitness (log ratio)” value was 0.0565.
In the case of U109A G141A A142U, the “polymerase ribozyme fitness (log ratio)” value is reported as no more than -4.2.
For C103G U135A, the “polymerase ribozyme fitness (log ratio)” value was -2.27.
For C105U A119U G140A U146G, the “polymerase ribozyme fitness (log ratio)” value was -3.72.
In the case of C99G A137C A142G, the “polymerase ribozyme fitness (log ratio)” value is reported as -3.71.
With A106G G117A the “polymerase ribozyme fitness (log ratio)” value was 0.816.
In the case of C96G G143C, the “polymerase ribozyme fitness (log ratio)” value is reported as -2.86.
For C105U U109G G133C, the “polymerase ribozyme fitness (log ratio)” value was -1.81.
With C96U U139A the “polymerase ribozyme fitness (log ratio)” value was -3.94.
In the case of C96U G117U A120U C149A, the “polymerase ribozyme fitness (log ratio)” value is reported as no more than -4.2.
For U101G A115U G117U A150C, the “polymerase ribozyme fitness (log ratio)” value was no more than -4.2.
For A97U G124U, the “polymerase ribozyme fitness (log ratio)” value was -1.05.
For C96G G152U, the “polymerase ribozyme fitness (log ratio)” value was -2.77.
For A115C A142G A150U, the “polymerase ribozyme fitness (log ratio)” value was -3.13.
With C103G U145G the “polymerase ribozyme fitness (log ratio)” value was -1.87.
In the case of C99U A119C C125G U134G, the “polymerase ribozyme fitness (log ratio)” value is reported as -3.27.
For A107G C118U U145A, the “polymerase ribozyme fitness (log ratio)” value was no more than -4.2.
In the case of A97U G117U, the “polymerase ribozyme fitness (log ratio)” value is reported as -1.25.
For A97G C123U, the “polymerase ribozyme fitness (log ratio)” value was 0.215.
In the case of C114U G136C, the “polymerase ribozyme fitness (log ratio)” value is reported as -3.39.
In the case of C96U A97G G124A C149A, the “polymerase ribozyme fitness (log ratio)” value is reported as -4.08.
With A97G C123G C131G the “polymerase ribozyme fitness (log ratio)” value was -2.72.
With U102A G128U the “polymerase ribozyme fitness (log ratio)” value was -4.1.
For G112U G141A U148G, the “polymerase ribozyme fitness (log ratio)” value was no more than -4.2.
In the case of C96G G112C, the “polymerase ribozyme fitness (log ratio)” value is reported as -3.95.
With A97G G143A the “polymerase ribozyme fitness (log ratio)” value was -1.44.
With A106C G141A the “polymerase ribozyme fitness (log ratio)” value was -0.24.
For C99A C116U, the “polymerase ribozyme fitness (log ratio)” value was -0.602.
In the case of A98U A137C, the “polymerase ribozyme fitness (log ratio)” value is reported as -4.19.
For C96U G133A, the “polymerase ribozyme fitness (log ratio)” value was -3.92.
For C96U G126U A137C A138G, the “polymerase ribozyme fitness (log ratio)” value was no more than -4.2.
For C114U C123U, the “polymerase ribozyme fitness (log ratio)” value was -2.17.
With A106G A110U the “polymerase ribozyme fitness (log ratio)” value was -3.42.
For C99U C149U, the “polymerase ribozyme fitness (log ratio)” value was -1.17.
With A97C A98U U111G the “polymerase ribozyme fitness (log ratio)” value was -3.78.
For C99G C129A, the “polymerase ribozyme fitness (log ratio)” value was -3.81.
With C96U U101G G124C the “polymerase ribozyme fitness (log ratio)” value was -0.75.
For C96G C99G C116A A147C, the “polymerase ribozyme fitness (log ratio)” value was no more than -4.2.
In the case of C96G A110G, the “polymerase ribozyme fitness (log ratio)” value is reported as -3.11.
In the case of A98G A115G U135G, the “polymerase ribozyme fitness (log ratio)” value is reported as -3.81.
For C96G U102G, the “polymerase ribozyme fitness (log ratio)” value was -3.26.
With C103G A121G the “polymerase ribozyme fitness (log ratio)” value was -1.32.
In the case of C96U G126A, the “polymerase ribozyme fitness (log ratio)” value is reported as 0.845.
In the case of C99G U144A U148A, the “polymerase ribozyme fitness (log ratio)” value is reported as no more than -4.2.
In the case of C114U C118G, the “polymerase ribozyme fitness (log ratio)” value is reported as -2.88.
With A110U U127A the “polymerase ribozyme fitness (log ratio)” value was -4.06.
For U111C G117U, the “polymerase ribozyme fitness (log ratio)” value was -4.09.
For A115C G133U, the “polymerase ribozyme fitness (log ratio)” value was -3.74.
For A115C, the “polymerase ribozyme fitness (log ratio)” value was -0.641.
In the case of C103U U139A, the “polymerase ribozyme fitness (log ratio)” value is reported as -3.96.
In the case of C99A C114U U135G, the “polymerase ribozyme fitness (log ratio)” value is reported as -3.68.
For C99G U102G U135A, the “polymerase ribozyme fitness (log ratio)” value was no more than -4.2.
For C96U A97U U134G A138C, the “polymerase ribozyme fitness (log ratio)” value was no more than -4.2.
For C96U C105A C116G, the “polymerase ribozyme fitness (log ratio)” value was -1.79.
With C103G A120U the “polymerase ribozyme fitness (log ratio)” value was -1.5.
In the case of C96U A119C G141A, the “polymerase ribozyme fitness (log ratio)” value is reported as 0.872.
In the case of A98G A120G, the “polymerase ribozyme fitness (log ratio)” value is reported as -0.401.
For A106C, the “polymerase ribozyme fitness (log ratio)” value was -0.467.
For A106U, the “polymerase ribozyme fitness (log ratio)” value was -0.23.
In the case of A106G, the “polymerase ribozyme fitness (log ratio)” value is reported as 0.398.
With C96G A142U U146A the “polymerase ribozyme fitness (log ratio)” value was -1.97.
In the case of A113G U134A, the “polymerase ribozyme fitness (log ratio)” value is reported as no more than -4.2.
With A97G G152A the “polymerase ribozyme fitness (log ratio)” value was -3.19.
